Measurements published in patent publication US20260027190A1, “OVARIAN TUMOR DEUBIQUITINASE OXIDATION AND USES THEREOF” (The University of Vermont and State Agricultural College, priority 2022, published 2026).

Key:
Format in all cases: cell-based
[1] = test system: mouse tracheal epithelial (MTE) cells; experiment: Total GSH measurement (DTNB assay) in MTE cells; details: direct administration of recombinant protein to MTE cells
Protocol: It has been previously shown that the pleotropic cytokine IL1B augments glycolysis in lung epithelial cells, and that interleukin 1B (IL1B) is linked to oxidative stress. The pentose phosphate pathway, an offshoot of glycolysis, regulates the redox environment by providing nicotinamide adenine dinucleotide phosphate (NADPH) reducing equivalents necessary for glutathione (GSH) homeostasis. The effects of GSH in response to IL1B were examined. Briefly, GSH was measured using a 5,5′-dithio-bis (2-nitrobenzoic acid) (DTNB) assay in both control and IL1B-stimulated mouse tracheal epithelial cells. […] Statistics on the left panel represent the total GSH levels, without differentiating between labeled and unlabeled portions of GSH (P-value*<0.05, ****<0.0001).
A regulator of GSH homeostasis is the transporter system xC-, which exports glutamate and concomitantly imports cystine in a 1:1 ratio. Once inside the cells, cystine is reduced to two cysteines, the latter being the rate limiting amino acid required for GSH synthesis. These relationships were examined further. […] To address whether IL1B-induced increases in GSH are system xC- dependent, two system xC- inhibitors, erastin (Er) and sulfasalazine (SAS) were used. Cells were pretreated for one hour, followed by IL1B treatment for 24 hours. Then, GSH levels were measured in cells exposed to increasing doses of Er or SAS (FIG. 2G). Extracellular glutamate levels in cell culture supernatant of cells pretreated with 0.5 micromolar Er (left) or 100 micromolar SAS (right) for 1 hour before IL1B stimulation were also measured (FIG. 2H). […] System xC- inhibition is known to induce ferroptosis, an iron-dependent mode of cell death characterized by increased lipid peroxidation. However, no changes in cell viability using erastin (5 micromolar) or sulfasalazine (500 micromolar) were detected (FIG. 2I; P-value*<0.05, ***<0.001, ****<0.0001).
Primary mouse tracheal epithelial (MTE) cells were isolated from C57BL/6NJ wild-type or C57BL6/NJ mice lacking Glrx1 gene and cultured. Cells were grown on collagen coated plastic plates or transwell inserts with media change every 2 days until confluency. For interleukin 1B (IL1B) treatment: cells were incubated in plain Dulbecco's Modified Eagle Medium (DMEM): F12 media containing 6 mM glucose and 2 mM glutamine overnight followed by stimulation with 10 ng/ml IL1B or 0.1% bovine serum albumin (BSA) in phosphate buffered saline (PBS) (vehicle control) for 24 hours. Treatment with crastin, sulfasalazine or BSO occurred 1 hour before IL1B stimulation. Media and cells were collected for further analysis. For growing H522 and OTUB1-CRISPR-H522 cells: Roswell Park Memorial Institute (RPMI) media supplemented with 10% fetal bovine serum (FBS) and 1% pen/strep was used to grow the cells. Plasmid over-expression and OTUB1 knock-down experiments were done when cells were 60-70% confluent.
Cell lysates were prepared in 100 mM potassium phosphate buffer containing 0.6% sulfosalicylic acid, 1 mM ethylenediaminetetraacetic acid (EDTA) and 0.01% triton-x-100. To measure total glutathione (GSH), equal amounts of proteins were incubated with 3 micromolar 5,5′-dithio-bis (2-nitrobenzoic acid) (DTNB) reagent and 2.25 microgram/ml glutathione reductase followed by the addition of 240 micromolar Nicotinamide adenine dinucleotide phosphate (NADPH). Kinetic absorbance was measured every minute at 412 nm for 20 minutes. […]

[2] = test system: mouse tracheal epithelial (MTE) cells; experiment: Total PSSG in MTE cells treated with recombinant GLRX; details: direct administration of recombinant protein to MTE cells
Protocol: OTUB1 was one of the PSSG targets detected in IL1B-stimulated epithelial cells raising the possibility that S-glutathionylation of OTUB1 affects the stability of SLC7A11. To investigate this, immunoprecipitation of GSH followed by Western Blotting of OTUB1 in MTE cells treated with vehicle or IL1B was performed. Dithiothreitol (DTT) was incubated with cell lysates prior to immunoprecipitation as a negative control. OTUB1 levels from whole cell lysates were used as the input control. Increases in OTUB1 S-glutathionylation (OTUB1-SSG) in response to IL1B were observed, with further increases occurring in cells lacking Glrx (FIG. 4G), consistent with the role of GLRX as a deglutathionylating enzyme. Western blots were performed using cells treated with the WT- or C23S-mutant GLRX recombinant protein to examine the presence of glutaredoxin (FIG. 4H) and total PSSG (FIG. 4I) (P-value*<0.05, **<0.01, ***<0.001, ****<0.0001). […] Glutathione was evaluated in MTE cells treated with recombinant WT- or C23S-mutant GLRX (FIG. 4J) and glutamate in cell culture supernatant of MTE cells treated with WT or the C23S mutant GLRX was also evaluated (FIG. 4K). […]
Cell lysates were prepared in 100 mM potassium phosphate buffer containing 0.6% sulfosalicylic acid, 1 mM ethylenediaminetetraacetic acid (EDTA) and 0.01% triton-x-100. […] Kinetic absorbance was measured every minute at 412 nm for 20 minutes. […]

[3] = test system: H522 LUAD cells; experiment: GSH levels in H522 LUAD cells; details: administration of GLRX to H522 LUAD cells
Protocol: Cell lysates were prepared in 100 mM potassium phosphate buffer containing 0.6% sulfosalicylic acid, 1 mM ethylenediaminetetraacetic acid (EDTA) and 0.01% triton-x-100. To measure total glutathione (GSH), equal amounts of proteins were incubated with 3 micromolar 5,5′-dithio-bis (2-nitrobenzoic acid) (DTNB) reagent and 2.25 microgram/ml glutathione reductase followed by the addition of 240 micromolar Nicotinamide adenine dinucleotide phosphate (NADPH). Kinetic absorbance was measured every minute at 412 nm for 20 minutes. For protein S-glutathionylation (PSSG) measurement, 400 micrograms of protein was acetone precipitated and washed thoroughly to remove any free GSH. Pellets were reconstituted in 100 mM potassium phosphate buffer with 1 mM EDTA. Samples were then incubated with 1 mM sodium borohydride (NaBH4) or water (negative control) for 1 hour at room temperature. 10% metaphosphoric acid was added to all the samples, including controls, and left on ice for 10 minutes. Samples were centrifuged at 1000×g for 15 minutes and 20 microliters were loaded in a 96 well plate to measure PSSG using, 5′-dithio-bis-(2-nitrobenzoic acid) (DTNB) recycling enzyme method as stated above.

[4] = test system: SLC7A11; experiment: SLC7A11 levels in H522 LUAD cells; details: administration of GLRX to H522 LUAD cells
Protocol: Bio-Rad DC protein estimation kit was used to determine protein concentration in cell lysates. Equal amounts of proteins were resolved using sodium dodecyl sulfate (SDS)-polyacrylamide gel electrophoresis and transferred to polyvinylidene difluoride (PVDF) membranes, blocked in 5% BSA and incubated with primary antibodies overnight. Membranes were subsequently incubated with peroxidase-conjugated secondary antibodies for one hour and then visualized using chemiluminescence.

B1: GLRX: recombinant wild-type glutaredoxin protein, deglutathionylating enzyme, administered directly to cells (protein, UniProt P35754 2-106, looked up)
Glutaredoxin-1: AQEFVNCKIQPGKVVVFIKPTCPYCRRAQEILSQLPIKQGLLEFVDITATNHTNEIQDYLQQLTGARTVPRVFIGKDCIGGCSDLVSLQQSGELLTRLKQIGALQ
decreased: GSH levels [1] | overall PSSG [2] | GSH levels [3] | SLC7A11 levels [4]
